According to article PMC2425489:

How the values were obtained:
Pbx1a;Prep1 [1] = target: T1, Pbx1a;Prep1 (;, UniProt P41778;P55347 1-430;1-436, |); assay: EMSA
T1 sequence 1: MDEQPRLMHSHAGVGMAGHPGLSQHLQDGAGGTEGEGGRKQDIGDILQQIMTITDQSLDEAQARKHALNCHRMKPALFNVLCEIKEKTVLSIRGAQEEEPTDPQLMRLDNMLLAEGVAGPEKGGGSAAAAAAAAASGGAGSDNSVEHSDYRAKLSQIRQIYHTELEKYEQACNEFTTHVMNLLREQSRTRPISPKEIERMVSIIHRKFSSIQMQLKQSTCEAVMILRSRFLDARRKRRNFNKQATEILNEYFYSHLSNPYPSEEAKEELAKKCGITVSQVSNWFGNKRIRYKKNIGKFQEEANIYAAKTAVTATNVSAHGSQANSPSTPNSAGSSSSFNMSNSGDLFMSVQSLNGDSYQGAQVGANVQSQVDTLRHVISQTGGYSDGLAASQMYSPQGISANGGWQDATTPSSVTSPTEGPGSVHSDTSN
T1 sequence 2: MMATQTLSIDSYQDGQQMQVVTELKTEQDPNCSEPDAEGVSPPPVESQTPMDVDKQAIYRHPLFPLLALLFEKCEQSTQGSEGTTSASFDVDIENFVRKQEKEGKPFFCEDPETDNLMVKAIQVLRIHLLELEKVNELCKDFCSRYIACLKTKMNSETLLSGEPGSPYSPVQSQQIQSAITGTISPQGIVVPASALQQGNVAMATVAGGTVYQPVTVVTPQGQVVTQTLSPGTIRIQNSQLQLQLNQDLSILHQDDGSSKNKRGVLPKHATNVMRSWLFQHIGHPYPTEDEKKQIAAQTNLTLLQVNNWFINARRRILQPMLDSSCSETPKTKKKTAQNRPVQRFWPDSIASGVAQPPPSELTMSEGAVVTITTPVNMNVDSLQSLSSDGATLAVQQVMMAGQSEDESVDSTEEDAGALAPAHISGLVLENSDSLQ

Hoxa2 = Hoxa2 (UniProt P31245 1-372); assay: EMSA
Chain of Hoxa2 (P31245 whole entry): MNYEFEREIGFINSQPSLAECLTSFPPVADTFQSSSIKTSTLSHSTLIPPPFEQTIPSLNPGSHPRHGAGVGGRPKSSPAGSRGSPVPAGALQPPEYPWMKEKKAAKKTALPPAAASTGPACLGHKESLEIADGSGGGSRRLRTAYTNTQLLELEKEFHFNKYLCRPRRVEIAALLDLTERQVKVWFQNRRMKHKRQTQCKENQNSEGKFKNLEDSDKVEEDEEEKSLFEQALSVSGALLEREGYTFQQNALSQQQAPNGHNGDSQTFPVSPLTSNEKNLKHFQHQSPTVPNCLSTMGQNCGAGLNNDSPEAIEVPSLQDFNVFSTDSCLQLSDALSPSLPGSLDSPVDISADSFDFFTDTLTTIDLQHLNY

Hoxa2;Pbx1a [2] = target: T2, Hoxa2;Pbx1a (mouse?;, UniProt P31245;P41778 1-372;1-430, |); assay: EMSA
T2 sequence (P31245 whole entry, one chain of several): as the sequence (P31245 whole entry) above

Hoxa1(WM-AA);Pbx1a = Hoxa1(WM-AA);Pbx1a (mouse?;, UniProt P09022;P41778 1-331;1-430, W203A;M204A|); assay: EMSA
Chain of Hoxa1(WM-AA);Pbx1a (P09022 whole entry W203A/M204A, one chain of several): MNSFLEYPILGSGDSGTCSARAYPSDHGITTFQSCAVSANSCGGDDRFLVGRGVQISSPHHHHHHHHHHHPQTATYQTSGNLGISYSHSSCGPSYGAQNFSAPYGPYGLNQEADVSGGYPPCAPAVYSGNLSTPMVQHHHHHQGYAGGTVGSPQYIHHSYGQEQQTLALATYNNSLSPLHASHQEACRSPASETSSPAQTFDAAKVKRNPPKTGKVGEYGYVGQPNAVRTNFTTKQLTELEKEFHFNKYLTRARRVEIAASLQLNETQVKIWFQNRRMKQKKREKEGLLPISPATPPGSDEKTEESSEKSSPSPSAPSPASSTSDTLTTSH

Hoxa1(WM-AA) = Hoxa1(WM-AA) (UniProt P09022 1-331, W203A;M204A); assay: EMSA
Chain of Hoxa1(WM-AA) (P09022 whole entry W203A/M204A): as the sequence (P09022 whole entry W203A/M204A, one chain of several) above

Hoxa2(QN-AA) (Hoxa2*) = Hoxa2(QN-AA) (Hoxa2*) (UniProt P31245 1-372, Q188A;N189A); assay: EMSA
Chain of Hoxa2(QN-AA) (Hoxa2*) (P31245 whole entry Q188A/N189A): as the sequence (P31245 whole entry) above, with Q188A, N189A counted along it

Hoxa1 = Hoxa1 (UniProt P09022 1-331); assay: EMSA
Chain of Hoxa1 (P09022 whole entry): as the sequence (P09022 whole entry W203A/M204A, one chain of several) above, with A203W, A204M counted along it

[3] = target: Hoxa2(QN-AA) (Hoxa2*);Pbx1a (mouse?;, UniProt P31245;P41778 1-372;1-430, Q188A;N189A|); assay: EMSA
Chain of Hoxa2(QN-AA) (Hoxa2*);Pbx1a (P31245 whole entry Q188A/N189A, one chain of several): as the sequence (P31245 whole entry) above, with Q188A, N189A counted along it

Pbx1a;Prep1 [4] = target: T1, Pbx1a;Prep1; assay: competition
Hoxa2;Pbx1a [5] = target: T2, Hoxa2;Pbx1a; assay: competition

Measured: binding result

B1: HRE* (mutated HRE) (dsDNA)
DNA 1: TTTCAAAGTTGGTGGGGGAAGACCTCG
DNA 2: CGAGGTCTTCCCCCACCAACTTTGAAA
no binding: Pbx1a;Prep1 [1] | Hoxa2 | Hoxa2;Pbx1a [2]

B2: HRE (dsDNA)
DNA 1: TTTCAAAGTTCATCAATCAAGACCTCG
DNA 2: CGAGGTCTTGATTGATGAACTTTGAAA
no binding: Hoxa1(WM-AA);Pbx1a | Hoxa1(WM-AA) | Hoxa2(QN-AA) (Hoxa2*) | Hoxa1 | [3]

B3: comp* (unlabelled mutated HRE) (dsDNA)
DNA 1: TTTCAAAGTTGGTGGGGGAAGACCTCG
DNA 2: CGAGGTCTTCCCCCACCAACTTTGAAA
no binding: Pbx1a;Prep1 [4] | Hoxa2;Pbx1a [5]
